Assay results: PMC3155373 (2011)

Target: Green fluorescent protein (acid-denatured) (Aequorea victoria, UniProt P42212 = GFP)
Assay: GFP refolding fluorescence kinetics (one-site fit, apparent Kd)

Binder | Kd
Protein disulfide isomerase (YPDI) (protein) PEDSAVVKLATDSFNEYIQSHDLVLAEFFAPWCGHCKNMAPEYVKAAETLVEKNITLAQIDCTENQDLCMEHNIPGFPSLKIFKNSDVNNSIDYEGPRTAEAIVQFMIKQSQPAVAVVADLPAYLANETFVTPVIVQSGKIDADFNATFYSMANKHFNDYDFVSAENADDDFKLSIYLPSAMDEPVVYNGKKADIADADVFEKWLQVEALPYFGEIDGSVFAQYVESGLPLGYLFYNDEEELEEYKPLFTELAKKNRGLMNFVSIDARKFGRHAGNLNMKEQFPLFAIHDMTEDLKYGLPQLSEEAFDELSDKIVLESKAIESLVKDFLKGDASPIVKSQEIFENQDSSVFQLVGKNHDEIVNDPKKDVLVLYYAPWCGHCKRLAPTYQELADTYANATSDVLIAKLDHTENDVRGVVIEGYPTIVLYPGGKKSESVVYQGSRSLDSLFDFIKENGHFDVDGKALYEEAQEKAAEEADADAELADEEDAIHDEL | 300 nM
Protein disulfide isomerase (HuPDI) (protein) not shown | 180 nM
